Experimental findings from paper PMC10746227 are described below.

B1: WalK-LgBIT (native WalK) [S. aureus] / WalR-SmBIT (native WalR) [S. aureus] (parent)
chain 1: MARKVVVVDDEKPIADILEFNLKKEGYDVYCAYDGNDAVDLIYEEEPDIVLLDIMLPGRDGMEVCREVRKKYEMPIIMLTAKDSEIDKVLGLELGADDYVTKPFSTRELIARVKANLRRHYSQPAQDTGNVTNEITIKDIVIYPDAYSIKKRGEDIELTHREFELFHYLSKHMGQVMTREHLLQTVWGYDYFGDVRTVDVTIRRLREKIEDDPSHPEYIVTRRGVGYFLQQHE
chain 2: MKWLKQLQSLHTKLVIVYVLLIIIGMQIIGLYFTNNLEKELLDNFKKNITQYAKQLEISIEKVYDEKGSVNAQKDIQNLLSEYANRQEIGEIRFIDKDQIIIATTKQSNRSLINQKANDSSVQKALSLGQSNDHLILKDYGGGKDRVWVYNIPVKVDKKVIGNIYIESKINDVYNQLNNINQIFIVGTAISLLITVILGFFIARTITKPITDMRNQTVEMSRGNYTQRVKIYGNDEIGELALAFNNLSKRVQEAQANTESEKRRLDSVITHMSDGIIATDRRGRIRIVNDMALKMLGMAKEDIIGYYMLSVLSLEDEFKLEEIQENNDSFLLDLNEEEGLIARVNFSTIVQETGFVTGYIAVLHDVTEQQQVERERREFVANVSHELRTPLTSMNSYIEALEEGAWKDEELAPQFLSVTREETERMIRLVNDLLQLSKMDNESDQINKEIIDFNMFINKIINRHEMSAKDTTFIRDIPKKTIFTEFDPDKMTQVFDNVITNAMKYSRGDKRVEFHVKQNPLYNRMTIRIKDNGIGIPINKVDKIFDRFYRVDKARTRKMGGTGLGLAISKEIVEAHNGRIWANSVEGQGTSIFITLPCEVIEDGDWDE

Variants of B1 are the subject of the first assay. As to the kind of experiment: split luciferase (SmBIT/LgBIT) interaction assay in S. aureus. To be noted: with WalR-SmBIT (native WalR) [S. aureus]; maximum of the RLU curve, mutant peak at about 170 min, Wt peak at about 120 min; growth in LB in NRS384 Wt; sub-panel labelled H385A; parent: 8e+03; read off a plot.
chain 2 H385A: the response was 20000 RLU.

Still in this assay, the particulars now being: with WalR-SmBIT (native WalR) [S. aureus]; maximum of the RLU curve, mutant peak at about 165 min, Wt peak at about 120 min; growth in LB in NRS384 Wt; sub-panel labelled G223D; parent: 8e+03; read off a plot.
With chain 2 G223D, the response came out at 19000 RLU.

Staying with this assay, now noted: with WalK-LgBIT (native WalK) [S. aureus]; maximum of the RLU curve, mutant peak at about 170 min, Wt peak at about 120 min; growth in LB in NRS384 Wt; sub-panel labelled D53A/T101A; parent: 8e+03; read off a plot.
For the variant chain 1 MARKVVVVDDEKPIADILEFNLKKEGYDVYCAYDGNDAVDLIYEEEPDIVLLAIMLPGRDGMEVCREVRKKYEMPIIMLTAKDSEIDKVLGLELGADDYVAKPFSTRELIARVKANLRRHYSQPAQDTGNVTNEITIKDIVIYPDAYSIKKRGEDIELTHREFELFHYLSKHMGQVMTREHLLQTVWGYDYFGDVRTVDVTIRRLREKIEDDPSHPEYIVTRRGVGYFLQQHE [chain 1 D53A T101A], the response is 8000 RLU.

The same assay, now with this note: with WalR-SmBIT (native WalR) [S. aureus]; maximum of the RLU curve, mutant peak at about 110 min, Wt peak at about 130 min; growth in LB in NRS384 Wt; sub-panel labelled Y32C; parent: 1.8e+04; read off a plot.
Take chain 2 Y32C: the response amounted to 55000 RLU.

The same assay, now with this note: with WalK-LgBIT (native WalK) [S. aureus]; maximum of the RLU curve, mutant peak at about 140 min, Wt peak at about 125 min; growth in LB in NRS384 Wt; sub-panel labelled D53A; parent: 8.5e+03; read off a plot.
Regarding chain 1 MARKVVVVDDEKPIADILEFNLKKEGYDVYCAYDGNDAVDLIYEEEPDIVLLAIMLPGRDGMEVCREVRKKYEMPIIMLTAKDSEIDKVLGLELGADDYVTKPFSTRELIARVKANLRRHYSQPAQDTGNVTNEITIKDIVIYPDAYSIKKRGEDIELTHREFELFHYLSKHMGQVMTREHLLQTVWGYDYFGDVRTVDVTIRRLREKIEDDPSHPEYIVTRRGVGYFLQQHE [chain 1 D53A], the response turned out to be 17000 RLU.

Staying with this assay, now noted: with WalK-LgBIT (native WalK) [S. aureus]; maximum of the RLU curve, mutant peak at about 140 min, Wt peak at about 125 min; growth in LB in NRS384 Wt; sub-panel labelled D53E; parent: 8e+03; read off a plot.
As for chain 1 MARKVVVVDDEKPIADILEFNLKKEGYDVYCAYDGNDAVDLIYEEEPDIVLLEIMLPGRDGMEVCREVRKKYEMPIIMLTAKDSEIDKVLGLELGADDYVTKPFSTRELIARVKANLRRHYSQPAQDTGNVTNEITIKDIVIYPDAYSIKKRGEDIELTHREFELFHYLSKHMGQVMTREHLLQTVWGYDYFGDVRTVDVTIRRLREKIEDDPSHPEYIVTRRGVGYFLQQHE [chain 1 D53E], the response is 150000 RLU.

Still in this assay, the particulars now being: with WalR-SmBIT (native WalR) [S. aureus]; maximum of the RLU curve, mutant peak at about 125 min, Wt peak at about 120 min; growth in LB in NRS384 Wt; sub-panel labelled T389A; parent: 8e+03; read off a plot.
On to chain 2 T389A, for which the response was 60000 RLU.
